Experimental data reported in the supplement of paper PMC11246515.
± gives the standard deviation of the averaged measurements.

Assay: total protein half-life in vivo (active degradation + dilution); higher = more stable protein
[1] = E. coli NCM3722 delta-clpP delta-lon delta-hslV, growth: N-lim chemostat, doubling time 6 h
[2] = E. coli NCM3722 delta-clpP, growth: N-lim chemostat, doubling time 6 h
[3] = E. coli NCM3722 delta-hslV, growth: N-lim chemostat, doubling time 6 h
[4] = E. coli NCM3722 delta-lon, growth: N-lim chemostat, doubling time 6 h
[5] = E. coli NCM3722 delta-smpB, growth: N-lim chemostat, doubling time 6 h
[6] = wild type E. coli NCM3722, growth: C-lim chemostat, doubling time 3 h
[7] = wild type E. coli NCM3722, growth: C-lim chemostat, doubling time 6 h
[8] = wild type E. coli NCM3722, growth: N-lim chemostat, doubling time 6 h
[9] = wild type E. coli NCM3722, growth: N-lim chemostat, doubling time 12 h
[10] = wild type E. coli NCM3722, growth: P-lim chemostat, doubling time 6 h
[11] = wild type E. coli NCM3722, growth: P-lim chemostat, doubling time 12 h
[12] = wild type E. coli NCM3722, growth: C-lim chemostat, doubling time 12 h

Sequence	total protein half-life in vivo [1]	total protein half-life in vivo [2]	total protein half-life in vivo [3]	total protein half-life in vivo [4]	total protein half-life in vivo [5]	total protein half-life in vivo [6]	total protein half-life in vivo [7]	total protein half-life in vivo [8]	total protein half-life in vivo [9]	total protein half-life in vivo [10]	total protein half-life in vivo [11]	total protein half-life in vivo [12]
MANVEIYTKETCPYCHRAKALLSSKGVSFQELPIDGNAAKREEMIKRSGRTTVPQIFIDAQHIGGCDDLYALDARGGLDPLLK [P0AC62]	6.58 h	5.58 ± 0.71 h	4.93 ± 0.091 h	5.33 ± 0.32 h	5.71 ± 1.9 h	2.89 ± 0.5 h	5.23 ± 1 h	4.68 h	9.44 ± 2.5 h	5.35 ± 0.39 h	12.6 ± 1.1 h	
MANWLNQLQSLLGQSSSSTSSSADQGLVKLLVPGALGGLAGLLVANKSARKLLTKYGTNALLVGGGAVAGTVLWNKYKDKIRAAHQDEPQFGAQSTPLDERTARLILALVFAAKSDGHIDAKERAAIDQQLRGAGVEEQGRVLIEQAIEQPLDPQRLATGVRNEEEALEIYFLSCAAIDIDHFMERSYLNALGDALKIPQDVRDGIERDLEQQKRTLAE	5.293 ± 0.0053 h		3.74 ± 0.12 h	3.56 ± 0.13 h	4.47 ± 0.86 h	2.22 ± 0.19 h	4.49 ± 0.37 h	4.91 ± 1.6 h	8.34 ± 0.38 h	3.34 ± 0.58 h	5.708 ± 0.041 h	9.68 ± 3.4 h
MAQEIELKFIVNHSAVEALRDHLNTLGGEHHDPVQLLNIYYETPDNWLRGHDMGLRIRGENGRYEMTMKVAGRVTGGLHQRPEYNVALSEPTLDLAQLPTEVWPNGELPADLASRVQPLFSTDFYREKWLVAVDGSQIEIALDQGEVKAGEFAEPICELELELLSGDTRAVLKLANQLVSQTGLRQGSLSKAARGYHLAQGNPAREIKPTTILHVAAKADVEQGLEAALELALAQWQYHEELWVRGNDAAKEQVLAAISLVRHTLMLFGGIVPRKASTHLRDLLTQCEATIASAVSAVTAVYSTETAMAKLALTEWLVSKAWQPFLDAKAQGKISDSFKRFADIHLSRHAAELKSVFCQPLGDRYRDQLPRLTRDIDSILLLAGYYDPVVAQAWLENWQGLHHAIATGQRIEIEHFRNEANNQEPFWLHSGKR	5.73 ± 0.11 h	5.48 ± 0.56 h	5.22 ± 0.088 h	4.91 ± 1.1 h	4.78 ± 0.12 h	3.09 ± 0.13 h	6.25 ± 0.19 h	5.37 ± 0.26 h	8.65 ± 0.74 h	6.02 ± 0.58 h	11.6 ± 1.1 h	10.7 ± 1.1 h
MAQEYTVEQLNHGRKVYDFMRWDYWAFGISGLLLIAAIVIMGVRGFNWGLDFTGGTVIEITLEKPAEIDVMRDALQKAGFEEPMLQNFGSSHDIMVRMPPAEGETGGQVLGSQVLKVINESTNQNAAVKRIEFVGPSVGADLAQTGAMALMAALLSILVYVGFRFEWRLAAGVVIALAHDVIITLGILSLFHIEIDLTIVASLMSVIGYSLNDSIVVSDRIRENFRKIRRGTPYEIFNVSLTQTLHRTLITSGTTLMVILMLYLFGGPVLEGFSLTMLIGVSIGTASSIYVASALALKLGMKREHMLQQKVEKEGADQPSILP [P0AG93]			6.16 h	5.2883 ± 0.0031 h		3.4 ± 0.44 h	5.67 ± 0.76 h		10.2 ± 0.42 h	6.06 ± 1 h		8.4 ± 5.1 h
MAQFYSAKRRTTTRQIITVSVNDLDSFGQGVARHNGKTLFIPGLLPQENAEVTVTEDKKQYARAKVVRRLSDSPERETPRCPHFGVCGGCQQQHASVDLQQRSKSAALARLMKHDVSEVIADVPWGYRRRARLSLNYLPKTQQLQMGFRKAGSSDIVDVKQCPILAPQLEALLPKVRACLGSLQAMRHLGHVELVQATSGTLMILRHTAPLSSADREKLERFSHSEGLDLYLAPDSEILETVSGEMPWYDSNGLRLTFSPRDFIQVNAGVNQKMVARALEWLDVQPEDRVLDLFCGMGNFTLPLATQAASVVGVEGVPALVEKGQQNARLNGLQNVTFYHENLEEDVTKQPWAKNGFDKVLLDPARAGAAGVMQQIIKLEPIRIVYVSCNPATLARDSEALLKAGYTIARLAMLDMFPHTGHLESMVLFSRVK	5.4 ± 0.1 h	5.11 ± 0.95 h	4.34 ± 0.43 h	4.54 ± 0.058 h	3.9767 ± 0.00076 h	2.96 ± 0.12 h	5.12 ± 0.17 h	4.203 ± 0.032 h	6.93 ± 0.14 h	4.49 ± 1 h	10.7 ± 2.4 h	9.07 ± 0.16 h
